Consider 2 molecules from article PMC3172300, “Modulation of Catalytic Activity in Multi-Domain Protein Tyrosine Phosphatases” (PLoS ONE, 2011).

Structures can show the parent of a compound that is named as a salt. Where two headings read alike, the source gives them in different places. Square brackets hold non-standard residues; d marks the D form. Ends that are not written are not given here. pY = N[C@@H](Cc1ccc(OP(=O)(O)O)cc1)C(=O)O

Test [1] deals with T1, PTP99A D1D2 (Drosophila melanogaster, UniProt P35832).
T1 sequence (P35832 450-1050): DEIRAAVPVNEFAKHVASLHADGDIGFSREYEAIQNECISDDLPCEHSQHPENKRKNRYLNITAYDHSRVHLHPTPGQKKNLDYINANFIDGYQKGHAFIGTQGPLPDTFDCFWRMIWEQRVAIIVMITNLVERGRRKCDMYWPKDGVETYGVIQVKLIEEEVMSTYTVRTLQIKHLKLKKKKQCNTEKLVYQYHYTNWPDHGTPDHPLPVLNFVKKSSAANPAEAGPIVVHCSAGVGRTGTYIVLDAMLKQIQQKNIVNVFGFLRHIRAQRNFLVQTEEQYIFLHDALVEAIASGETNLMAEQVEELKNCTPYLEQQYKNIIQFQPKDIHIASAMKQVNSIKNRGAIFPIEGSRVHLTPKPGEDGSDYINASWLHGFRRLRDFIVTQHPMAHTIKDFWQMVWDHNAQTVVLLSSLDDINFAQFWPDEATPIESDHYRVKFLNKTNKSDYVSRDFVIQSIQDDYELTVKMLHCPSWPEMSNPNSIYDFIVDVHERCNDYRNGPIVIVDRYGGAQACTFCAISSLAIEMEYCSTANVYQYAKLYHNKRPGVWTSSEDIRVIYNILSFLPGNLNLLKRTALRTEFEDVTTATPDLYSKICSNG
Briefly: PNC binding by fluorescence quenching, PTP99A D1D2. To be noted: 5.0 µM protein, 25 mM citrate pH 6.5; fluorescence quenching 350 nm; independent two site model; read-out: Kd1. The method, then:
(§1) 5.0 µM of recombinant protein was titrated with increasing concentrations of PNC (Sigma-Aldrich) in 25 mM citrate buffer pH 6.5, 100 mM NaCl and 2 mM DTT. The closing of the WPD loop leads to the quenching of the intrinsic tryptophan fluorescence. Fluorescence quenching was monitored at 350 nm (emission maximum) for recombinant PTP domains and the dissociation constants were calculated by fitting the data to a hyperbolic equation of ligand binding using the nonlinear regression modules of Sigma Plot software (Systat Software Inc.).
(§2) To evaluate the differences in the phosphotyrosine binding pockets of the two domains of DLAR and PTP99A, a small molecule probe para-Nitrocatecholsulfate (2-hydroxy-5-nitrophenyl sulfate; PNC) was used. PNC acts as a small molecule competitive inhibitor of the PTPs as it mimics the phosphotyrosine residue. PNC binding was evaluated by monitoring the fluorescence quenching of the tryptophan residues in the WPD loop. […] PNC binding to the DLAR D1D2 construct fitted well to the independent ligand binding model for two non-interacting sites.

Test [2] has as its target T2, PTP99A D1 (Drosophila melanogaster, UniProt P35832).
T2 sequence (P35832 450-756): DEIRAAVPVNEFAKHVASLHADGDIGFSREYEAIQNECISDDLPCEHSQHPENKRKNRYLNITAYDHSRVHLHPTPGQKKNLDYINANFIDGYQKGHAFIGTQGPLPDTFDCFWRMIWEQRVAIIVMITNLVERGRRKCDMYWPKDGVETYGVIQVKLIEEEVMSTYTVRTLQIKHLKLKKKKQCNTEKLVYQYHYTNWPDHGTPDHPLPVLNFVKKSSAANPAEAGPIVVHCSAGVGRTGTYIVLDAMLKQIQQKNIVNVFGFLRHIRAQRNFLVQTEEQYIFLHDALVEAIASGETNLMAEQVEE
The test can be described thus: PNC binding by fluorescence quenching, PTP99A D1. Also noted: PTP99A 450-756; His tag (pET-15b or pET-22b); made in house; host or cells: E. coli BL21(DE3). The method, then: as §1, §2

Test [3] addresses T3, PTP99A D2 (Drosophila melanogaster, UniProt P35832).
T3 sequence (P35832 740-1050): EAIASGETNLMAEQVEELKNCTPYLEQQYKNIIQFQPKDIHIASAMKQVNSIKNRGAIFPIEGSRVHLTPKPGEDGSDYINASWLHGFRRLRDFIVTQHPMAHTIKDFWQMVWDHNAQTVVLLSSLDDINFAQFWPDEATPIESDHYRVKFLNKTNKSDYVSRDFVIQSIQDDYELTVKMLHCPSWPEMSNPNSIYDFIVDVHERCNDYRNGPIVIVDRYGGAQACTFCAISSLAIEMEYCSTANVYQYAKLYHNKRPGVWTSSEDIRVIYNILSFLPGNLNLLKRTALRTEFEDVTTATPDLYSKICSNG
Briefly: PNC binding by fluorescence quenching, PTP99A D2. The method, then: as §1, §2

For test [4], the target named is T4, DLAR D2 (Drosophila melanogaster, UniProt P16621).
T4 construct: DLAR 1728-2029; His tag (pET-15b or pET-22b); made in house; host or cells: E. coli BL21(DE3)
T4 sequence (P16621 1728-2029): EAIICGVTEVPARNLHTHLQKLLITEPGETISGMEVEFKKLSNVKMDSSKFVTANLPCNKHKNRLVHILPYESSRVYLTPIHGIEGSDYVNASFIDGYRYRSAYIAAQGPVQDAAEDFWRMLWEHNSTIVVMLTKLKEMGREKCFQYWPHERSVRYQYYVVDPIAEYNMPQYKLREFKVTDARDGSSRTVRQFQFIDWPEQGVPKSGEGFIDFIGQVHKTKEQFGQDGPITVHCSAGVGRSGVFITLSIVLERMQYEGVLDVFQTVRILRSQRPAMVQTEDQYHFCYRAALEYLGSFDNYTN
Briefly: PNC binding by fluorescence quenching, DLAR D2. To be noted: 5.0 µM protein, 25 mM citrate pH 6.5; fluorescence quenching 350 nm; single site model. On the procedure:
as §1, §2

For test [5], the target named is T5, DLAR D1 (Drosophila melanogaster, UniProt P16621).
T5 construct: DLAR 1448-1746; His tag (pET-15b or pET-22b); made in house; host or cells: E. coli BL21(DE3)
T5 sequence (P16621 1448-1746): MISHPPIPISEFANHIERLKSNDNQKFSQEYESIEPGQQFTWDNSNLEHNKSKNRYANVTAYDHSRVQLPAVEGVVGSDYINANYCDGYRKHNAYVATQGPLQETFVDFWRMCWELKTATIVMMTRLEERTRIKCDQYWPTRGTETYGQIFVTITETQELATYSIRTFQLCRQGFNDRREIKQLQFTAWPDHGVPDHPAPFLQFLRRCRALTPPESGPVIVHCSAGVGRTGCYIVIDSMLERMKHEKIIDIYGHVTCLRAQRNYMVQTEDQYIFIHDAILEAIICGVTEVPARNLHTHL
Briefly: PNC binding by fluorescence quenching, DLAR D1. On the procedure: as §1, §2

The target in test [6] is T6, DLAR D1D2 (Drosophila melanogaster, UniProt P16621).
T6 construct: DLAR 1448-2029; His tag (pET-15b or pET-22b); made in house; host or cells: E. coli BL21(DE3)
T6 sequence (P16621 1448-2029): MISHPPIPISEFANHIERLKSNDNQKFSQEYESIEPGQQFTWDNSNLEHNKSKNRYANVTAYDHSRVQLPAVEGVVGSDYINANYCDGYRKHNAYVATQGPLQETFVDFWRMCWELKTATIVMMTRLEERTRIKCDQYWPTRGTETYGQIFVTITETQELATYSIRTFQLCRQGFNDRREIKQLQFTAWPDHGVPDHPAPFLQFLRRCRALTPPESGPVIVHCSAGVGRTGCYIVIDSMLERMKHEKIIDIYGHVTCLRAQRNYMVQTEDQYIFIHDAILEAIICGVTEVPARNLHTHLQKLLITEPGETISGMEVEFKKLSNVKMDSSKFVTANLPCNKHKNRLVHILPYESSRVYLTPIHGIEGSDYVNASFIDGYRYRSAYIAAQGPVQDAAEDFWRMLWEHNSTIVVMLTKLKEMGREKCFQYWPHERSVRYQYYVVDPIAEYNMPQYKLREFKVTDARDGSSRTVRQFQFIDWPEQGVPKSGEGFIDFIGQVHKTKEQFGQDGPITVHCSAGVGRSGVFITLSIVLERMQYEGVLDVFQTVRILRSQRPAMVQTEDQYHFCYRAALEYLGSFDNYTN
The test can be described thus: PNC binding by fluorescence quenching, DLAR D1D2. To be noted: 5.0 µM protein, 25 mM citrate pH 6.5, fluorescence quenching 350 nm, independent two site model. The method, then:
as §1, §2

Test [7] has as its target DLAR D1D2 (tandem PTP domains of Drosophila Leukocyte antigen Related) (Drosophila melanogaster). Briefly: SPR; Biacore-2000; DLAR PTP domains immobilised on CM5 chips by amine coupling; peptides as analyte at 50-700 µM; 25°C; 10 mM HEPES pH 8.0, 150 mM NaCl, 10 mM DTT, 3 mM EDTA; 5 µL/min; two independent sites fit for the double domain constructs, single-site fit for DLAR D1 and DLAR D2.

Test [8] deals with DLAR D1D2HSS (Cys to Ser mutation in the D2 domain) (Drosophila melanogaster). The description is as above.
The target in test [9] is DLAR D2 (membrane-distal PTP domain of DLAR) (Drosophila melanogaster). Described as above.
Test [10] addresses DLAR D1HSS D2 (Cys to Ser mutation in the D1 domain) (Drosophila melanogaster). Described as above.
The target in test [11] is DLAR D1 (membrane-proximal PTP domain of DLAR) (Drosophila melanogaster). The test is described as above.
Where [12] appears, read: 5.0 µM protein, 25 mM citrate pH 6.5, fluorescence quenching 350 nm, single site model.

For the molecule `O=[N+]([O-])c1ccc(O)c(OS(=O)(=O)O)c1` [PNC, 2-hydroxy-5-nitrophenyl sulfate], the Kd in test [1] is 94.8 µM; in test [2] (setting [12]) it was 153 µM; in test [3] (setting [12]), 716 µM; in test [4], 214 µM; in test [5] (5.0 µM protein, 25 mM citrate buffer pH 6.5, 100 mM NaCl, 2 mM DTT, tryptophan fluorescence quenching 350 nm, single site model), 235 µM; in test [6] (read-out: Kd1), 160 µM. Also, in test [6] (read-out: Kd2), the Kd turned out to be 173 µM. Besides, the “relative PNC binding” value in [2] (D1 domain of PTP99A alone, fluorescence quenching) is recorded as “four times more favorable”; in test [3] (D2 domain of PTP99A compared to the other PTP domains, fluorescence quenching) it was “much more poorly”; in test [5] (two PTP domains of DLAR (D1 and D2) compared, fluorescence quenching) it was “comparable affinities”.

B1: Cuticle Peptide TAEPD(pY)GALYE (peptide)
peptide: TAEPD[pY]GALYE
In [7], B1 came in with a KD, first binding site of 313 µM; a KD, second binding site of 2.02 µM; a ka, first binding site of 32.6 M⁻¹ s⁻¹; a ka, second binding site of 16500 M⁻¹ s⁻¹. For the same molecule, in [7], the kd, first binding site is 0.0102 s⁻¹ and the kd, second binding site was 0.0333 s⁻¹. Moreover, in test [8], the KD, first binding site worked out at 296 µM; the KD, second binding site came out at 9.43 µM; the ka, first binding site is 51.7 M⁻¹ s⁻¹; the ka, second binding site worked out at 1.37 M⁻¹ s⁻¹. In addition, in [8], the kd, first binding site turned out to be 0.0153 s⁻¹ and the kd, second binding site stood at 1.3e-05 s⁻¹. Moreover, in test [9], the Kd turned out to be 104 µM, the koff is 0.00552 s⁻¹ and the on-rate (kon) amounted to 52.8 M⁻¹ s⁻¹. In test [10], this molecule displayed a KD, first binding site of 87.5 µM; a KD, second binding site of 1.87 µM; a ka, first binding site of 74.7 M⁻¹ s⁻¹; a ka, second binding site of 28800 M⁻¹ s⁻¹. For the same molecule, in test [10], the kd, first binding site stood at 0.00654 s⁻¹ and the kd, second binding site was found to be 0.054 s⁻¹. In [11], this molecule gave a Kd of 94.6 µM, a koff of 0.00176 s⁻¹ and a kon of 18.6 M⁻¹ s⁻¹.

As usually defined, the koff is the rate constant with which the complex falls apart. High values mean a short-lived complex, low ones a long-lived complex. Broadly, the kon is the rate constant with which the complex forms. Low readings indicate slow association, high ones fast association.
